Source: patent EP3470428A1 (Numab Innovation AG, dated 2019)
One block for each binder: values may come before it.

Experiments:
biotinylated human PD-L1 [1] = biological target: T1, biotinylated human PD-L1 (human, UniProt Q9NZQ7 19-238, limits assumed, biotinylated); test: competition ELISA; coated human PD-1 as competitor; biotinylated human PD-L1 pre-incubated with inhibitor
T1 construct: also called biotinylated PD-L1

biotinylated human PD-L1 [2] = biological target: T1, biotinylated human PD-L1; test: competition ELISA; coated human B7.1 as competitor; biotinylated PD-L1 pre-incubated with inhibitor
[3] = biological target: human PD-L1 expressed on cells (human, UniProt Q9NZQ7 19-290); test: cell-based or functional assay
[4] = biological target: T2, human CD137 expressed on cells (human, UniProt Q07011 24-255); test: cell-based or functional assay
[5] = biological target: T2, human CD137 expressed on cells; test: cell-based or functional assay; remark: listed apart in the source
[6] = biological target: T2, human CD137 expressed on cells; test: cell-based or functional assay; remark: listed apart in the source
[7] = biological target: T2, human CD137 expressed on cells; test: cell-based or functional assay; remark: listed apart in the source
[8] = biological target: human PD-L1-Fc chimeric protein (human, UniProt Q9NZQ7 19-239); test: SPR (Biacore T200); PD-L1-Fc captured by anti-human Fc
human serum albumin = biological target: T3, human serum albumin (human, UniProt P02768 25-609); test: SPR (Biacore T200); SA amine-coupled; pH 5.5
T3 construct: Amine-coupled to a CM5 chip; assay at pH 5.5; also called HSA; human SA

[9] = biological target: T2, human CD137 expressed on cells; test: cell-based or functional assay; remark: listed apart in the source
[10] = biological target: T2, human CD137 expressed on cells; test: cell-based or functional assay; remark: listed apart in the source
[11] = biological target: T2, human CD137 expressed on cells; test: cell-based or functional assay; remark: listed apart in the source

B2: PRO1123: 38-02-A04 sc05 IF scDb-i/33_03_G02 sc01 scDb-o (bispecific antibody)
chain: DIQMTQSPSSLSASVGDRVTITCQASQSINDYLAWYQQKPGKAPKLLIYKASTLASGVPSRFSGSGSGTDFTLTISSLQPEDFATYYCQQGYIITDIDNVFGTGTKVTVLGGGGGSQVQLQESGPGLVKPSETLSLTCKVSGFSFSNSYWICWVRQPPGKGLEWIGCTFVGSSDSTYYANWAKGRVTISVDSSKNQVSLKLSSVTAADTAVYFCARHPSDAVYGYANNLWGQGTLVTVSSGGGGSGGGGSGGGGSGGGGSIQMTQSPSSLSASVGDRVTITCQASQSINNVLAWYQQKPGKPPKLLIYRASTLASGVPSRFSGSGSGTDFTLTISSLQPEDFATYYCQSSYGNYGDFGTGTKVTVLGGGGGSQVQLQESGPGLVKPSETLSLTCKVSGFSFSSGYDMCWIRQPPGKGLEWIGCVVAGSVDITYYASWAKGRVTISVDSSKNQFSLKLSSVTAADTAVYYCARKDAYSDAFNLWGQGTLVTVSS
notes: scDb
EC50 in ng/ml, CD137 activation, NFkB-luciferase Jurkat reporter assay, HCC827 cells without IFNg [4]: 16.1 ng/mL
max. activation (%), NF-kB reporter gene, CHO-PD-L1; HSA: no [5]: 219%
max. activation (%), NF-kB reporter gene, HCC827 +IFNg; HSA: no [5]: 154%
max. activation (%), NF-kB reporter gene, HCC827 -IFNg; HSA: no [5]: 123%
EC50 in ng/ml, CD137 activation, NFkB-luciferase Jurkat reporter assay, HCC827 cells stimulated with IFNg [6]: 11.9 ng/mL
EC50 in ng/ml, CD137 activation, NFkB-luciferase Jurkat reporter assay, CHO-PD-L1 cells [7]: 5.75 ng/mL
binding result [8]: binds

B3: PRO1124: 38-02-A04 sc06 Full scDb-i/33_03_G02 sc01 scDb-o (bispecific antibody)
chain: DIQMTQSPSSLSASVGDRVTITCQASQSINDYLAWYQQKPGKAPKLLIYKASTLASGVPSRFSGSGSGTDFTLTISSLQPEDFATYYCQQGYIITDIDNVFGTGTKVTVLGGGGGSQVQLQESGPGLVKPSETLSLTCKASGFSFSNSYWICWVRQPPGKGLEWIGCTFVGSSDSTYYANWAKGRVTISKDSSKNQVSLKLSSVTAADTAVYFCARHPSDAVYGYANNLWGQGTLVTVSSGGGGSGGGGSGGGGSGGGGSLQMTQSPSSLSASVGDRVTITCQASQSINNVLAWYQQKPGKPPKLLIYRASTLASGVPSRFSGSGSGTDFTLTISSLQPEDFATYYCQSSYGNYGDFGTGTKVTVLGGGGGSQVQLQESGPGLVKPSETLSLTCKVSGFSFSSGYDMCWIRQPPGKGLEWIGCVVAGSVDITYYASWAKGRVTISVDSSKNQFSLKLSSVTAADTAVYYCARKDAYSDAFNLWGQGTLVTVSS
notes: scDb, STR graft of the CD137 domain
EC50 in ng/ml, CD137 activation, NFkB-luciferase Jurkat reporter assay, HCC827 cells without IFNg [4]: 5.62 ng/mL
max. activation (%), NF-kB reporter gene, CHO-PD-L1; HSA: no [5]: 229%
max. activation (%), NF-kB reporter gene, HCC827 +IFNg; HSA: no [5]: 188%
max. activation (%), NF-kB reporter gene, HCC827 -IFNg; HSA: no [5]: 113%
EC50 in ng/ml, CD137 activation, NFkB-luciferase Jurkat reporter assay, HCC827 cells stimulated with IFNg [6]: 4.83 ng/mL
EC50 in ng/ml, CD137 activation, NFkB-luciferase Jurkat reporter assay, CHO-PD-L1 cells [7]: 3.68 ng/mL
binding result [8]: binds

B5: PRO1059: 33-03-G02 IgG1 LC with 38_02_A04 sc01 scFV, PD-L1/CD137(scFv) silent Morrison (bispecific antibody)
light: DIQMTQSPSSLSASVGDRVTITCQASQSINDYLAWYQQKPGKAPKLLIYKASTLASGVPSRFSGSGSGTDFTLTISSLQPEDFATYYCQQGYIITDIDNVFGTGTKVTVLGTVAAPSVFIFPPSDEQLKSGTASVVCLLNNFYPREAKVQWKVDNALQSGNSQESVTEQDSKDSTYSLSSTLTLSKADYEKHKVYACEVTHQGLSSPVTKSFNRGECGGGGSGGGGSIQMTQSPSSLSASVGDRVTITCQASQSINNVLAWYQQKPGKAPKLLIYRASTLASGVPSRFSGSGSGTDFTLTISSLQPEDFATYYCQSSYGNYGDFGTGTKVTVLGGGGGSGGGGSGGGGSGGGGSQVQLQESGPGLVKPSETLSLTCKVSGFSFSNSYWICWIRQPPGKGLEWIGCTFVGSSDSTYYANWAKGRVTISVDSSKNQFSLKLSSVTAADTAVYYCARHPSDAVYGYANNLWGQGTLVTVSS
heavy: QVQLQESGPGLVKPSETLSLTCKVSGFSFSSGYDMCWIRQPPGKGLEWIGCVVAGSVDITYYASWAKGRVTISVDSSKNQFSLKLSSVTAADTAVYYCARKDAYSDAFNLWGQGTLVTVSSASTKGPSVFPLAPSSKSTSGGTAALGCLVKDYFPEPVTVSWNSGALTSGVHTFPAVLQSSGLYSLSSVVTVPSSSLGTQTYICNVNHKPSNTKVDKRVEPKSCDKTHTCPPCPAPEAAGGPSVFLFPPKPKDTLMISRTPEVTCVVVDVSHEDPEVKFNWYVDGVEVHNAKTKPREEQYNSTYRVVSVLTVLHQDWLNGKEYKCKVSNKALGAPIEKTISKAKGQPREPQVYTLPPSREEMTKNQVSLTCLVKGFYPSDIAVEWESNGQPENNYKTTPPVLDSDGSFFLYSKLTVDKSRWQQGNVFSCSVMHEALHNHYTQKSLSLSPGK
notes: IgG-scFv fusion, scFv on the light chain; also called Morrison-L
IC50 (biotinylated human PD-L1 [1]): 0.00454 µg/mL
IC50 (biotinylated human PD-L1 [2]): 0.029 µg/mL
IC50 (ng/ml), neutralization of PD-L1/PD-1 interaction, NFAT-luciferase reporter gene assay [3]: 93.8 ng/mL

B6: PRO1013 (anti-PD-L1 scFv, CDR set of clone 37-20-B03 grafted on a VH1 framework) (scFv)
chain: DIQMTQSPSSLSASVGDRVTITCQASQSIGTYLAWYQQKPGKAPKLLIYRAFILASGVPSRFSGSGSGTDFTLTISSLQPEDFATYYCQSNFYSDSTTIGPNAFGTGTKVTVLGGGGGSGGGGSGGGGSGGGGSQVQLVQSGAEVKKPGASVKVSCKASGFSFNSDYWIYWVRQAPGQGLEWMGSIYGGSSGNTQYASWAQGRVTMTRDTSISTAYMELSSLRSEDTAVYYCARGYVDYGGATDLWGQGTLVTVSS
IC50 (biotinylated human PD-L1 [1]): 0.00057 µg/mL
IC50 (biotinylated human PD-L1 [2]): 0.00405 µg/mL
IC50 (ng/ml), neutralization of PD-L1/PD-1 interaction, NFAT-luciferase reporter gene assay [3]: 21.3 ng/mL

Next, values leading:

IC50 (biotinylated human PD-L1 [1]): 0.0034 µg/mL
IC50 (biotinylated human PD-L1 [2]): 0.0129 µg/mL
IC50 (ng/ml), neutralization of PD-L1/PD-1 interaction, NFAT-luciferase reporter gene assay [3]: 42.9 ng/mL
B1: PRO830 (anti-PD-L1 scFv, CDR set of clone 33-03-G02 grafted on a VH4 framework) (scFv)
chain: DIQMTQSPSSLSASVGDRVTITCQASQSINDYLAWYQQKPGKAPKLLIYKASTLASGVPSRFSGSGSGTDFTLTISSLQPEDFATYYCQQGYIITDIDNVFGTGTKVTVLGGGGGSGGGGSGGGGSGGGGSQVQLQESGPGLVKPSETLSLTCKVSGFSFSSGYDMCWIRQPPGKGLEWIGCVVAGSVDITYYASWAKGRVTISVDSSKNQFSLKLSSVTAADTAVYYCARKDAYSDAFNLWGQGTLVTVSS

binding result (human serum albumin): binds
max. activation (%), NF-kB reporter gene, CHO-PD-L1; HSA: yes, 24h [5]: 369%
IC50 (ng/ml), neutralization of PD-L1/PD-1 interaction, NFAT-luciferase reporter gene assay, with HSA [3]: 275 ng/mL
B4: PRO963 (= PRO1051): 38_02_A04 sc01 scDb-i/33-03-G02 sc01 scDb-o/19-01-H04-sc03 scFv (other)
chain: DIQMTQSPSSLSASVGDRVTITCQASQSINDYLAWYQQKPGKAPKLLIYKASTLASGVPSRFSGSGSGTDFTLTISSLQPEDFATYYCQQGYIITDIDNVFGTGTKVTVLGGGGGSQVQLQESGPGLVKPSETLSLTCKVSGFSFSNSYWICWIRQPPGKGLEWIGCTFVGSSDSTYYANWAKGRVTISVDSSKNQFSLKLSSVTAADTAVYYCARHPSDAVYGYANNLWGQGTLVTVSSGGGGSGGGGSGGGGSGGGGSIQMTQSPSSLSASVGDRVTITCQASQSINNVLAWYQQKPGKAPKLLIYRASTLASGVPSRFSGSGSGTDFTLTISSLQPEDFATYYCQSSYGNYGDFGTGTKVTVLGGGGGSQVQLQESGPGLVKPSETLSLTCKVSGFSFSSGYDMCWIRQPPGKGLEWIGCVVAGSVDITYYASWAKGRVTISVDSSKNQFSLKLSSVTAADTAVYYCARKDAYSDAFNLWGQGTLVTVSSGGGGSGGGGSIQMTQSPSSLSASVGDRVTITCQSSESVYSNNQLSWYQQKPGQPPKLLIYDASDLASGVPSRFSGSGSGTDFTLTISSLQPEDFATYYCAGGFSSSSDTAFGGGTKLTVLGGGGGSGGGGSGGGGSGGGGSEVQLVESGGGLVQPGGSLRLSCAASGFSLSSNAMGWVRQAPGKGLEYIGIISVGGFTYYASWAKGRFTISRDNSKNTVYLQMNSLRAEDTATYFCARDRHGGDSSGAFYLWGQGTLVTVSS
notes: Trispecific scTriabody (scDb-scFv): PD-L1 x CD137 x serum albumin

IC50 (biotinylated human PD-L1 [1]): 0.00567 µg/mL
IC50 (biotinylated human PD-L1 [2]): 0.0174 µg/mL
EC50 in ng/ml, CD137 activation, NFkB-luciferase Jurkat reporter assay, PD-L1 expressing CHO cells, 24h [9]: 80.8 ng/mL
EC50 in ng/ml, CD137 activation, NFkB-luciferase Jurkat reporter assay, HCC827 with IFNy stimulation, 24h [10]: 17.5 ng/mL
EC50 in ng/ml, CD137 activation, NFkB-luciferase Jurkat reporter assay, HCC827 without IFNy stimulation, 24h [10]: 13.6 ng/mL
EC50 in ng/ml, CD137 activation, NFkB-luciferase Jurkat reporter assay, PD-L1 expressing CHO cells, 6h [11]: 56.4 ng/mL
IC50 (ng/ml), neutralization of PD-L1/PD-1 interaction, NFAT-luciferase reporter gene assay [3]: 133 ng/mL
B7: PRO1060: 33-03-G02 IgG1 HC with 38_02_A04 sc01 scFV, PD-L1/CD137(scFv) silent Morrison (bispecific antibody)
light: DIQMTQSPSSLSASVGDRVTITCQASQSINDYLAWYQQKPGKAPKLLIYKASTLASGVPSRFSGSGSGTDFTLTISSLQPEDFATYYCQQGYIITDIDNVFGTGTKVTVLGTVAAPSVFIFPPSDEQLKSGTASVVCLLNNFYPREAKVQWKVDNALQSGNSQESVTEQDSKDSTYSLSSTLTLSKADYEKHKVYACEVTHQGLSSPVTKSFNRGEC
heavy: QVQLQESGPGLVKPSETLSLTCKVSGFSFSSGYDMCWIRQPPGKGLEWIGCVVAGSVDITYYASWAKGRVTISVDSSKNQFSLKLSSVTAADTAVYYCARKDAYSDAFNLWGQGTLVTVSSASTKGPSVFPLAPSSKSTSGGTAALGCLVKDYFPEPVTVSWNSGALTSGVHTFPAVLQSSGLYSLSSVVTVPSSSLGTQTYICNVNHKPSNTKVDKRVEPKSCDKTHTCPPCPAPEAAGGPSVFLFPPKPKDTLMISRTPEVTCVVVDVSHEDPEVKFNWYVDGVEVHNAKTKPREEQYNSTYRVVSVLTVLHQDWLNGKEYKCKVSNKALGAPIEKTISKAKGQPREPQVYTLPPSREEMTKNQVSLTCLVKGFYPSDIAVEWESNGQPENNYKTTPPVLDSDGSFFLYSKLTVDKSRWQQGNVFSCSVMHEALHNHYTQKSLSLSPGKGGGGSGGGGSIQMTQSPSSLSASVGDRVTITCQASQSINNVLAWYQQKPGKAPKLLIYRASTLASGVPSRFSGSGSGTDFTLTISSLQPEDFATYYCQSSYGNYGDFGTGTKVTVLGGGGGSGGGGSGGGGSGGGGSQVQLQESGPGLVKPSETLSLTCKVSGFSFSNSYWICWIRQPPGKGLEWIGCTFVGSSDSTYYANWAKGRVTISVDSSKNQFSLKLSSVTAADTAVYYCARHPSDAVYGYANNLWGQGTLVTVSS
notes: IgG-scFv fusion, scFv on the heavy chain; also called Morrison-H
